Laboratory results published in patent US20070203325A1 (published 2007).

Columns and labels:
GST-impβ = biological target: T1, GST-impβ (UniProt Q14974 1-876); assay: GST pull-down of in vitro translated 35S-labelled protein (0.25% NP40), autoradiography
T1 construct: also called Imps

GST-Impα (Rch1) = GST-Impα (Rch1) (human, UniProt P52292 1-529); assay: as above

T1 sequence (Q14974 whole entry): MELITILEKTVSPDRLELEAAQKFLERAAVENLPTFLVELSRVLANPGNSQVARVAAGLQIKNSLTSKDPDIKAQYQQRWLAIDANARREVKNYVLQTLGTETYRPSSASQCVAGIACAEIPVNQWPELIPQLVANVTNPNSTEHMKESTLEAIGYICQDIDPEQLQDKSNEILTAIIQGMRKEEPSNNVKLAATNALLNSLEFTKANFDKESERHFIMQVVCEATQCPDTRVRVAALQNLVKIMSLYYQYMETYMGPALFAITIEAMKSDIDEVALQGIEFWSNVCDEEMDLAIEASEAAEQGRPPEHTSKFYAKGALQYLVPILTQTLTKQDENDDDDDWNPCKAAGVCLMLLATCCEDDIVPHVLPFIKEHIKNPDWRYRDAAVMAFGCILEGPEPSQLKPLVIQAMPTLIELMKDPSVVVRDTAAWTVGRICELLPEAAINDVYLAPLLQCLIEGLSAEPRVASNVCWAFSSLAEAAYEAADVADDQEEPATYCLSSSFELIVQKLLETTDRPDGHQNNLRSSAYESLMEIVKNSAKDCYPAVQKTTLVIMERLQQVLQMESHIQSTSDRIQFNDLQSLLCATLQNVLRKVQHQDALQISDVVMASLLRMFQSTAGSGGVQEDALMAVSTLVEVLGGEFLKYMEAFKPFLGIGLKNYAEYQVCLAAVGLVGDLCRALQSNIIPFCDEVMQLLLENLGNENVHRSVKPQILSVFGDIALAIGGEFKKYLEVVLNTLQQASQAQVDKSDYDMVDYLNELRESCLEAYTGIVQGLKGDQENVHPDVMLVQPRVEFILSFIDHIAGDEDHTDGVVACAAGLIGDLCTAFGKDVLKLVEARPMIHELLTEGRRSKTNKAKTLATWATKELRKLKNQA

B1: T7-CAT (enzyme)
chain: MEKKITGYTTVDISQWHRKEHFEAFQSVAQCTYNQTVQLDITAFLKTVKKNKHKFYPAFIHILARLMNAHPEFRMAMKDGELVIWDSVHPCYTVFHEQTETFSSLWSEYHDDFRQFLHIYSQDVACYGENLAYFPKGFIENMFFVSANPWVSFTSFDLNVANMDNFFAPVFTMGKYYTQGDKVLMPLAIQVHHAVCDGFHVGRMLNELQQYCDEWQGGA
B1: no binding (GST-impβ); no binding (GST-Impα (Rch1)).
